Consider 5 molecules from patent US20260125468A1 (NONA BIOSCIENCES SUZHOU, published 2026).

Bounds are passed on as bounds.

Test [1] concerns the target T1, CD3 on T cells in cynomolgus monkey PBMCs (cynomolgus monkey, UniProt Q95LI5 22-198; Q95LI8 22-171; Q95LI7 23-181).
T1 construct: whole, on cells
Description: FACS on cynomolgus monkey PBMCs, 2-fold serial dilution from 200 nM [A]. The method, then:
(§1) The cross reactivity to cynomolgus monkey for 3G11-HCAb (PR010991) and derived B7H4xCD3 PR008551 was evaluated by assays of binding activity to cynomolgus monkey PBMCs by FACS method and T cell mediated cytotoxicity with cynomolgus monkey PBMCs by RTCA method. In this example, Anti-CD3/TCR HCAb PR006361 derived from patent WO2016180982A1 and its derived B7H4xCD3 PR006001 were used as control antibodies. These antibodies are generated as described in Example 8.
(§2) Cynomolgus monkey PBMCs were isolated from 10 mL fresh cynomolgus monkey blood using Ficoll Paque Plus (Cytiva 17-1440-02) following the vendor's instructions. The recombinant antibodies were diluted from 200 nM to 11 different concentrations by 2-fold serial dilution. The diluted samples were incubated with cynomolgus monkey PBMCs for 1 hour, and then the secondary antibody (Alexa Fluor®488 AffinityPure Goat Anti-Human IgG (Fcγ Fragment Specific), Jackson ImmunoResearch, 109-545-098) was added and incubated for 1 hour. The cells were washed twice with staining buffer and subjected to flow cytometry. The data were processed by FlowJo v10 (FlowJo, LLC) and non-linear curve fitting analyzed by GraphPad Prism 8.

For test [2], the target named is T2, Biotinylated cynomolgus CD3e&d protein (Acro Biosystems, CDD-C82W6) (cynomolgus, UniProt Q95LI5 22-117; Q95LI8 22-105, biotinylated protein; chain and site not stated).
T2 construct: Bought protein loaded on SA Octet biosensors
T2 sequence (Q95LI5 22-117, chain 1 of 2): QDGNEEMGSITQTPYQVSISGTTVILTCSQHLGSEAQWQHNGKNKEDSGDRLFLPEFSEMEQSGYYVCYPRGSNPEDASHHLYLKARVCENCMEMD
T2 sequence (Q95LI8 22-105, chain 2 of 2): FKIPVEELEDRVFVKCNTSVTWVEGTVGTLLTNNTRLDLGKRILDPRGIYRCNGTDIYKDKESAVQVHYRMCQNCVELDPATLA
Description: BLI (Octet RED96e), biotinylated antigen on SA biosensors. As for the experimental part:
(§3) To determine the binding affinities of anti-CD3 antibodies to human or cynomolgus monkey CD3e&d heterodimer proteins, bio-layer interferometry (BLI) assays were carried out by using Octet® RED96e.
(§4) Biotinylated human CD3e&d protein (Acro Biosystems, CDD-H82W6) or biotinylated cynomolgus CD3e&d protein (Acro Biosystems, CDD-C82W6) was first loaded onto the surface of SA Octet biosensors (Sartorius, 18-5019) to reach capture levels between 0.5-0.8 nm. The loaded biosensors were then dipped in wells containing 2-fold serial dilutions of testing antibodies to detect association signals, followed by dissociation steps in wells containing kinetic buffer. The association phase was 180 seconds, and the dissociation phase was 900 seconds. The sensorgrams were recorded, and the reference signals were subtracted before curve fitting using ForteBio Data Analysis 11.0 software. Association rates (kon) and dissociation rates (koff) were calculated using a simple one-to-one Langmuir binding model. The equilibrium dissociation constant (KD) was calculated as the ratio of koff/kon.

For test [3], the target named is T3, CD3/TCR complex on Jurkat cells (ATCC, TIB-152) and Jurkat-NFAT-Luc reporter cells (human, UniProt P07766 23-207; P04234 22-171; P09693 23-182; P20963 22-164).
T3 construct: whole, on cells; also called CD3/TCR-positive Jurkat cells; TCR/CD3 complex
T3 sequence (P09693 23-182, chain 3 of 2): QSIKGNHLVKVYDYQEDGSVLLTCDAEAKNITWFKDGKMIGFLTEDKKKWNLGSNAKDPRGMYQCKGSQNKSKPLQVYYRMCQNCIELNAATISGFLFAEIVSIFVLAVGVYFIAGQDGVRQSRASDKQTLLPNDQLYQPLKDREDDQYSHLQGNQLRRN
T3 sequence (P20963 22-164, chain 4 of 2): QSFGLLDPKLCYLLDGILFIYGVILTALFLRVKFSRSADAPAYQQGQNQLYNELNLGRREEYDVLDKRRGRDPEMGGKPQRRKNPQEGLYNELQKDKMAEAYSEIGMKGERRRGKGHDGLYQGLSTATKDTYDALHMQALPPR
In words: FACS on Jurkat cells, purified antibody [A]. As for the experimental part: The binding activities to target cells for the supernatants A1-monoFc (PR005860) and E2-monoFc (PR005861) were evaluated by FACS. The supernatants of the recombinant antibodies (i.e. A1-monoFc, E2-monoFc) were diluted from bulk solution to 8 different concentrations by 3-fold serial dilution. […] The cells were washed twice with staining buffer and subjected to flow cytometry. The data were processed by FlowJo v10 (FlowJo, LLC) and non-linear curve fitting analyzed by GraphPad Prism 8.
The binding activities to Jurkat and J.RT3-T3.5 cells for purified A1-HCAb (PR006364), E2-HCAb (PR006365) were determined by FACS, following the method described in Example 2. As shown in (A) and (B of FIG. 8, PR006364 and PR006365 can bind to Jurkat cells but not to J.RT3-T3.5 cells, which is consistent with the result in FIG. 1.

For test [4], the target named is T1, CD3 on T cells in cynomolgus monkey …. In words: FACS on cynomolgus monkey PBMCs, 2-fold serial dilution from 200 nM [B]. The method, then:
as §1, §2

For test [5], the target named is T4, hCD3e&d-his, Human CD3 epsilon & CD3 delta Heterodimer Protein with His Tag (Acro Biosystems, CDD-H52W1) (Human, UniProt P07766 23-126; P04234 22-105).
T4 construct: Bought protein; also called human CD3E&D heterodimer protein; not shown: His Tag fused to C-terminus of CD3 epsilon chain
Description: ELISA, plate coated with human CD3e&d-his at 1 µg/mL, anti-human IgG Fc-HRP [B]. The method, then:
(§5) ELISA assays were conducted as briefly described: CD3 proteins were coated onto ELISA plates at 1 μg/mL; testing antibodies OKT3 and PR006364 (A1-HCAb) were diluted from 2 μg/mL to 8 different concentrations by 3-fold serial dilution, or testing antibodies PR006370 (SP34) and PR010991 (3G11-HCAb) were diluted from 100 nM to 11 different concentrations by 2-fold serial dilution; secondary antibody (anti-human IgG Fc-HRP) was used to detect PR006364, PR006370 and PR010991, and secondary antibody (anti-mouse IgG Fc-HRP) was used to detect OKT3 binding signal. The absorption signal at 450 nm (OD450) was recorded by plate reader (Molecular Devices, SpectraMax), and the data were processed and non-linear curve fitting analyzed by GraphPad Prism 8.

Test [6] has as its target T5, hCD3d-his, Human CD3 delta Protein with His Tag (Acro Biosystems, CDD-H5224) (Human, UniProt P04234 22-105).
T5 construct: Bought protein; also called monomeric CD3D; not shown: His Tag
Description: ELISA, plate coated with human CD3d-his at 1 µg/mL, anti-human IgG Fc-HRP [F]. The method, then: as §5

Test [7] deals with T6, cynoCD3e&d-his, Cynomolgus CD3 epsilon & CD3 delta Heterodimer Protein (Acro Biosystems, CDD-C52W4) (Cynomolgus, UniProt Q95LI5 22-117; Q95LI8 22-105).
T6 construct: Bought protein; also called cynomolgus CD3E&D heterodimer protein; not shown: His Tag fused to C-terminus of CD3 epsilon chain; Flag Tag fused to C-terminus of CD3 delta chain
T6 sequence (Q95LI5 22-117, stated change not applied, chain 1 of 2): as the sequence (Q95LI5 22-117, chain 1 of 2) above
T6 sequence (Q95LI8 22-105, stated change not applied, chain 2 of 2): as the sequence (Q95LI8 22-105, chain 2 of 2) above
Description: ELISA, plate coated with cyno CD3e&d-his at 1 µg/mL, anti-human IgG Fc-HRP [C]. The method, then:
as §5

For test [8], the target named is T7, hCD3e&g-his, Human CD3 epsilon & CD3 gamma Heterodimer Protein with His Tag (Acro Biosystems, CDG-H52W5) (Human, UniProt P07766 23-126; P09693 23-116).
T7 construct: Bought protein; also called human CD3E&G heterodimer protein; not shown: His Tag fused to C-terminus of CD3 epsilon chain
T7 sequence (P09693 23-116, one chain of several): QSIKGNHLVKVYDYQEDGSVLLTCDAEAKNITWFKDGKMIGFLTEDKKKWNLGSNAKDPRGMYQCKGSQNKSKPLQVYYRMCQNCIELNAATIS
In words: ELISA, plate coated with human CD3e&g-his at 1 µg/mL, anti-human IgG Fc-HRP [D]. The method, then:
as §5

Test [9] addresses T8, hCD3e-his, Human CD3 epsilon Protein with His Tag (Acro Biosystems, CDE-H5223) (Human, UniProt P07766 23-126).
T8 construct: Bought protein; also called human CD3E monomeric protein; monomeric CD3E; not shown: His Tag
Description: ELISA, plate coated with human CD3e-his at 1 µg/mL, anti-human IgG Fc-HRP [E]. As for the experimental part:
as §5

The target in test [10] is T2, Biotinylated cynomolgus CD3e&d protein …. In words: BLI (Octet RED96e), biotinylated antigen on SA biosensors, antibody 1.5-24 nM. As for the experimental part:
as §3, §4

Test [11] addresses T9, Biotinylated human CD3e&d protein (Acro Biosystems, CDD-H82W6) (human, UniProt P07766 23-126; P04234 22-105, biotinylated protein; chain and site not stated).
T9 construct: Bought protein loaded on SA Octet biosensors; also called human CD3 protein
Described as above. As for the experimental part:
as §3, §4

Test [12] addresses human CD3E&D heterodimer protein (construct not specified; FIG. 9A and FIG. 12) (human, UniProt P07766 23-126; P04234 22-105). Description: ELISA on coated human CD3e&d heterodimer protein (construct not named on the sheet).
The target in the next test is T10, human CD3e&d-llamaFc.
T10 construct: also called hCD3e&d-llamaFc; Human CD3 epsilon & CD3 delta Heterodimer Protein fused with Llama Fc (Acro Biosystems, CDD-H5258); not shown: The llama Fc, any linker to it, and which chain or chains carry it
T10 epsilon: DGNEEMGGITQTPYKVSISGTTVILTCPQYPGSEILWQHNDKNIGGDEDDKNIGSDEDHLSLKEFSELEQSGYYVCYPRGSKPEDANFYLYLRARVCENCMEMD
T10 delta: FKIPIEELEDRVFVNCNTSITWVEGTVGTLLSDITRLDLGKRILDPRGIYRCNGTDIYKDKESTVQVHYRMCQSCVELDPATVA
Description: ELISA, plate coated with human CD3e&d-llamaFc at 1 µg/mL, anti-human IgG Fc-HRP [A]. As for the experimental part: as §5

Test [13] addresses T9, Biotinylated human CD3e&d protein (Acro …). In words: BLI (Octet RED96e), biotinylated antigen on SA biosensors, antibody 0.375-12 nM. As for the experimental part:
as §3, §4

T1 sequence (Q95LI5 22-198, chain 1 of 3): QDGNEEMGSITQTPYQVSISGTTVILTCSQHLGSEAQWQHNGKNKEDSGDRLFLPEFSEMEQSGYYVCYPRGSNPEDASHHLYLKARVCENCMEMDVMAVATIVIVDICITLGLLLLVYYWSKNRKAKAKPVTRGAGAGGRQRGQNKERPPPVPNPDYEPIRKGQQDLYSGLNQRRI
T1 sequence (Q95LI8 22-171, chain 2 of 3): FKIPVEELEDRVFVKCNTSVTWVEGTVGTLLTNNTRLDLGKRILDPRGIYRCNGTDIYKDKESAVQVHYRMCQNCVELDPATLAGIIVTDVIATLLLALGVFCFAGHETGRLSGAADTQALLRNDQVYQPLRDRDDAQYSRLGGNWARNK
T1 sequence (Q95LI7 23-181, chain 3 of 3): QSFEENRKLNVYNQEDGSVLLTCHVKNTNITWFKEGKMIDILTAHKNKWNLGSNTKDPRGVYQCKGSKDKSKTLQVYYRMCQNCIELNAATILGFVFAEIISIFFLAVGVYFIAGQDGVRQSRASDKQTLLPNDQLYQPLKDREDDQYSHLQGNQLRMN

B1: PR006361, anti-CD3/TCR HCAb hIgG1(AAG) from WO2016180982A1 (antibody, V domains shown)
VH: EVQLVESGGGPVQAGGSLRLSCAASGRTYRGYSMGWFRQAPGKEREFVAAIVWSGGNTYYEDSVKGRFTISRDNAKNTMYLQMTSLKPEDSATYYCAAKIRPYIFKIAGQYDYWGQGTQVTVSS
notes: Control heavy-chain-only antibody from prior art; C220S and AAG mutations
B1: the binding result in [1] was “no binding (tested: 200 nM)”; in test [2] it was “no binding (tested: 12.5-200 nM)”.

B2: PR006365, anti-CD3 E2-HCAb hIgG1(C220S, AAG) (antibody, V domains shown)
VH: EVQLVESGGGLVQAGGSLRLSCAASGRTNGIPAMAWFRQAPGKEREFVAMAWSGGGTIYGDSVKNRFTISRNNAQNTISLQMSSLRPEDTALYFCAAGRTTSNKADHYNYWGQGTQVTVSS
notes: Heavy-chain-only antibody, human IgG1 Fc (C220S, L234A, L235A, P329G)
Regarding B2, the “EC50 (read off the curve)” value in test [3] was ~9 nM.

B3: PR006001, anti-B7H4xCD3 VH(PR006361)-Fc-scFv(PR003366), hIgG1(dCH1, KiH, LALA) (bispecific antibody)
chain 1: not shown
chain 2: EIVMTQSPASLSVSPGERATLSCRASQSVSSNLAWYQQKPGQAPRLLIYGASTRATGIPARVSGGGSGTEFTLTISSLQSEDFAVYYCQQYKNWPFTFGPGTKLEIKGGGGSGGGGSGGGGSGGGGSQVQLVQSGAEVKKPGSSMRVSCKASEDTFSSYAISWVRQAPGQGLEWMGGTAPIFGTTNYAQKFQGRVTITADKSTSTAYMELSSLRSEDTAVYYCARGGPYFDYWGQGTLVTVSSASEPKSSDKTHTCPPCPAPEAAGGPSVFLFPPKPKDTLMISRTPEVTCVVVDVSHEDPEVKFNWYVDGVEVHNAKTKPREEQYNSTYRVVSVLTVLHQDWLNGKEYKCKVSNKALPAPIEKTISKAKGQPREPQVCTLPPSREEMTKNQVSLSCAVKGFYPSDIAVEWESNGQPENNYKTTPPVLDSDGSFFLVSKLTVDKSRWQQGNVFSCSVMHEALHNHYTQKSLSLSPGK
notes: Control bispecific; anti-CD3 VH-Fc chain and anti-B7H4 scFv-Fc chain
B3: the binding result in test [4] is given as “no binding (tested: 200 nM)”.

B4: PR010991, anti-CD3 3G11-HCAb hIgG1(C220S, AAA) (antibody, V domains shown)
VH: RVHLAESGGGLVQAGGSLRLSCAASGSRLNDNAMAWFRQAPGKEREFVGSIFWTGGNTYYADAVKGRLTISRDNAKNALYLQMNSLKPEDTAVYYCAASRVVWYYCSGYGCSRAGDYVYWGQGTQVTVSS
notes: Heavy-chain-only antibody, human IgG1 Fc (C220S, L234A, L235A, G237A)
As to B4, the “EC50 (read off the curve)” value in [5] was ~0.9 nM; in test [7], ~2 nM. Further, the binding result in test [6], in test [8] and in test [9] was “no binding (tested: 100 nM)” in each case. The Kd in test [10] and in test [11] was < 0.001 nM each time. Besides, the koff in [10] and in test [11] was < 1e-07 s⁻¹ in each case. Besides, the kon was determined as 708000 M⁻¹ s⁻¹ in test [10] and 906000 M⁻¹ s⁻¹ in [11].

B5: PR006364, anti-CD3 A1-HCAb hIgG1(C220S, AAG) (antibody, V domains shown)
VH: RIRLVESGGGLVQAGGSLRLSCAASGRTSGIPAMAWFRQAPGKEREFVAMAWSGGGTIYGDSVKNRFTISRDNTQNTIFLQMNSLKPEDTALYYCAAGRSTSNRADQYNYWGQGTQVTVSS
notes: Heavy-chain-only antibody, VHH fused to conventional human IgG1 Fc (C220S, L234A, L235A, P329G)
As to B5, the “EC50 (read off the curve)” value is ~0.7 nM in test [12], ~0.03 µg/mL with human CD3e&d-llamaFc and ~2 nM in test [3]. Moreover, in test [13], the Kd is 0.0342 nM. In test [13], this molecule registered a koff of 2.49e-05 s⁻¹. Further, in test [13], the on-rate constant (kon) was found to be 727000 M⁻¹ s⁻¹.
